Test results reported in patent US20090203595A1 (ZENSUN SHANGHAI SCIENCE AND TECHNOLOGY, published 2009).

Tests used:
[1] = target: T1, ErbB2&ErbB4 co-expressed on COS7 cells (UniProt P04626 23-1255; Q15303 26-1308, limits assumed); experiment: receptor binding affinity assay on COS7 cells co-expressing ErbB2&ErbB4
T1 construct: whole, on cells; Both receptors are co-expressed on the same cells, and the numbers are for these cells, not for a single receptor; also called COS7 cells (ErbB2&ErbB4 co-expression)
Experimental: (§1) To study the receptor binding affinity of neuregulin and its mutations, ErbB2&ErbB3 or ErbB2&ErbB4 co-expressing COS7 are used. The cells are grown to 80% confluence. In the afternoon, after the cells reach 80% confluence, the media is changed to serum free media. Then, after 24 hours, the cells are harvested for receptor binding affinity assays.

[2] = target: T2, ErbB2&ErbB3 co-expressed on COS7 cells (UniProt P04626 23-1255; P21860 20-1342, limits assumed); experiment: receptor binding affinity assay on COS7 cells co-expressing ErbB2&ErbB3
T2 construct: whole, on cells; Both receptors are co-expressed on the same cells, and the numbers are for these cells, not for a single receptor; also called COS7 cells (ErbB2&ErbB3 co-expression)
Experimental: as §1

[3] = target: T1, ErbB2&ErbB4 co-expressed on COS7 cells; experiment: competition of bound radiolabeled ligands on COS7 cells co-expressing ErbB2&ErbB4
Experimental: as §1

[4] = target: T2, ErbB2&ErbB3 co-expressed on COS7 cells; experiment: competition of bound radiolabeled ligands on COS7 cells co-expressing ErbB2&ErbB3
Experimental: as §1

Kd [1] [nM]	Kd [2] [nM]	EC50 [3] [nM]	EC50 [4] [nM]	Binder
0.282	1.41	132	113	neuregulin (the 177-237 amino acids fragment of neuregulin1 β2) (ligand, also called NRG; NRG-1β) SHLVKCAEKEKTFCVNGGECFMVKDLSNPSRYLCKCPNEFTGDRCQNYVMASFYKAEELYQ
–	–	40.7	149	neuregulin variant D43A (ligand) SHLVKCAEKEKTFCVNGGECFMVKDLSNPSRYLCKCPNEFTGARCQNYVMASFYKAEELYQ
1.06	1.15	–	–	neuregulin variant L3A (ligand) SHAVKCAEKEKTFCVNGGECFMVKDLSNPSRYLCKCPNEFTGDRCQNYVMASFYKAEELYQ
